The text below walks through data of patent publication US20210154165.

The target in this data set is ARID1A (endogenous, ARID1A-wildtype cancer cell lysate) (UniProt O14497).
Chain of UniProt O14497 (O14497 whole entry, looked up): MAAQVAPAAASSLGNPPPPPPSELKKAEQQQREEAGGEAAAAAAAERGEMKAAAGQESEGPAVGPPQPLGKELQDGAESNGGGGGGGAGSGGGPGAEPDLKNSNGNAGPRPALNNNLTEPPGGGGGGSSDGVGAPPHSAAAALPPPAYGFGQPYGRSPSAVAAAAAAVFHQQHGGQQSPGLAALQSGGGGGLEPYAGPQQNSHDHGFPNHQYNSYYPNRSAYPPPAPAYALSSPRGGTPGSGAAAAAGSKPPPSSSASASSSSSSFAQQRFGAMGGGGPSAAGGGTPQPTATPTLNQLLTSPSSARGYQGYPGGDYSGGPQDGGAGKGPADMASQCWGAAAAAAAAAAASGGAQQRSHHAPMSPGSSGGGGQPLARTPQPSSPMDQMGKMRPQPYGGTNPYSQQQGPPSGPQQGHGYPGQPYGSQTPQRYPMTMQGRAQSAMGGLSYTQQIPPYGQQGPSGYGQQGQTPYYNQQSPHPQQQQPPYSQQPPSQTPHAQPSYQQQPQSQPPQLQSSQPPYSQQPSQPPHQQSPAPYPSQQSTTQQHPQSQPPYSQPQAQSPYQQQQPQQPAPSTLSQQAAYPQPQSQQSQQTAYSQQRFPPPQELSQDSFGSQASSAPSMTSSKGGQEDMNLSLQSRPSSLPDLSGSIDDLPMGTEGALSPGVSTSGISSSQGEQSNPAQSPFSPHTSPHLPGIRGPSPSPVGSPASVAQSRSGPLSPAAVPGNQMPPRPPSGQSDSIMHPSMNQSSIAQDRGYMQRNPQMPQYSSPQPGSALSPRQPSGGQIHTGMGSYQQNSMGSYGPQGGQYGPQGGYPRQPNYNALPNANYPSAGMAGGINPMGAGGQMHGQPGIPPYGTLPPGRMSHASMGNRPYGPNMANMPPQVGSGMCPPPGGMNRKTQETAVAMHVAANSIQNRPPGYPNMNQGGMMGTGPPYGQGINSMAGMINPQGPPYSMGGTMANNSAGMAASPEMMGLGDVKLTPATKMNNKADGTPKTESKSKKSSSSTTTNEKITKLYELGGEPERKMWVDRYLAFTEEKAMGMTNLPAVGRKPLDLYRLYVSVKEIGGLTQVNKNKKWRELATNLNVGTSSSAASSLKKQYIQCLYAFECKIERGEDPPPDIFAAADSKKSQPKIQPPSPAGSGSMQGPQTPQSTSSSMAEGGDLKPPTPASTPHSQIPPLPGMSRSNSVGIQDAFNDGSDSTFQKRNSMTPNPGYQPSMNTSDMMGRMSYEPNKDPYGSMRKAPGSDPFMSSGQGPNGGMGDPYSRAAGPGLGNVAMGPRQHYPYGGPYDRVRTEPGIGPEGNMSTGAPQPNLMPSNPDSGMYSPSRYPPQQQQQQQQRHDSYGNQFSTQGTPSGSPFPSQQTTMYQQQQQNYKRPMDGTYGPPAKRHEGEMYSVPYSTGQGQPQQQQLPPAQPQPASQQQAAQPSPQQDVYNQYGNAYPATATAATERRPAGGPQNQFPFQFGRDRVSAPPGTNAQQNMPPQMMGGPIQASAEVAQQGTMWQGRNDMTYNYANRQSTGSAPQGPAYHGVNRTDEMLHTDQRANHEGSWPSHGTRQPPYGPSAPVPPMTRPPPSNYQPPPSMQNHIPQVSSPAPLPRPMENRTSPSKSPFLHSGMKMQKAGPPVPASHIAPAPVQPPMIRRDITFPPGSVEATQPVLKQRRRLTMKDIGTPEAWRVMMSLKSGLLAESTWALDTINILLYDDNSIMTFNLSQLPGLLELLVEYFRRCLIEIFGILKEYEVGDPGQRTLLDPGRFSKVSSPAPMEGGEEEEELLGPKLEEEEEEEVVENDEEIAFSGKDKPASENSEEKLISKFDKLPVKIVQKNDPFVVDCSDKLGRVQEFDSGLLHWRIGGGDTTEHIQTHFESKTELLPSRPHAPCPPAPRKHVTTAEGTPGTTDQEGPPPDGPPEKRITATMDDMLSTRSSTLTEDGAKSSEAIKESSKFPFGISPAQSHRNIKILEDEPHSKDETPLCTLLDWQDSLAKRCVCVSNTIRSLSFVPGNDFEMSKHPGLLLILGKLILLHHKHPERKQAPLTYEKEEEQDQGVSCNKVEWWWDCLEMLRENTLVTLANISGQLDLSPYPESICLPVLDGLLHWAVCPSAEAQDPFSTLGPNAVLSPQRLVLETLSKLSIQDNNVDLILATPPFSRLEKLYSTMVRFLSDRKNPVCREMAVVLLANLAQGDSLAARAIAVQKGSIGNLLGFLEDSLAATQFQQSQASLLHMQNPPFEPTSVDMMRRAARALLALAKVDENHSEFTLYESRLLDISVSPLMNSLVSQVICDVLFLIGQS

As for “Carbamoyl-phosphate synthetase 2, Aspartate transcarbamoylase, and Dihydroorotase (CAD) (endogenous)”, the “total CAD and phosphorylated CAD (Serine-1859) protein levels by immunoblot after ARID1A knockdown or restoration” value is “wildtype ARID1A functions as a negative regulator of CAD, wherein ARID1A deficiency results in an increase in total and phosphorylated CAD”.
